Assay [1] addresses T1, mouse serum albumin (mouse, UniProt P07724 25-608).
T1 construct: also called mouse SA
In words: Gyrolab in-solution affinity, 2 h incubation; 95% CI 101-117 nM.

Assay [2] deals with T2, cyno serum albumin (cynomolgus monkey).
T2 construct: also called cyno SA; cynomolgus monkey serum albumin
The assay is described as follows: Gyrolab in-solution affinity, 2 h incubation; 95% CI 9.0-12.3 nM. Here is the method: (§1) Under receptor-controlled measurements a serial dilution of OX40L (ranging from 1.3 μM-0.031 μM), IL-13 (ranging from 0.1 μM-0.25 fM), or serum albumin (ranging from 100 μM-3.2 μM) and a fixed amount of ISVD construct F027100187 (5 nM in case of OX40L, […] in case of IL-13 and 30 nM in case of HSA and cyno SA) were mixed to allow interaction and incubated for either 24 or 48 hours (in case of OX40L and IL-13) or 2 hours (in case of serum albumin) to reach equilibrium.
(§2) Biotinylated human OX40L/IL-13/serum albumin was captured in the microstructures of a Gyrolab Bioaffy 1000 CD, which contains columns of beads and was used as a molecular probe to capture free F027100187 from the equilibrated solution. The mixture of OX40L/IL13/serum albumin and F027100187 (containing free OX40UIL-13/serum albumin, free F027100187 and OX40L/IL13/serum albumin—F027100187 complexes) was allowed to flow through the beads, and a small percentage of free F027100187 was captured, which is proportional to the free ISVD construct concentration. A fluorescently labeled anti-ISVD antibody, ABH0086-Alexa647, was then injected to label any captured F027100187 and after rinsing away excess of fluorescent probe, the change in fluorescence was determined. Fitting of the dilution series was done using Gyrolab Analysis software, where KD- and receptor-controlled curves were analyzed to determine the KD value.

Assay [3] has as its target T3, human OX40L (human, UniProt P23510 51-183).
T3 sequence (looked up): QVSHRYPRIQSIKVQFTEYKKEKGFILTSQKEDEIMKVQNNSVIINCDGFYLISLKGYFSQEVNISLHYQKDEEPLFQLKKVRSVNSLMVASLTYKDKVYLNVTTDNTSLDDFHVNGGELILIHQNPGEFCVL
In words: cell-based or functional assay.

In assay [4] the target is T4, human IL-13 (human, UniProt P35225 35-146, limits assumed).
T4 construct: Recombinant soluble protein; also called hIL-13; soluble hIL-13
T4 sequence (P35225 35-146 limits assumed): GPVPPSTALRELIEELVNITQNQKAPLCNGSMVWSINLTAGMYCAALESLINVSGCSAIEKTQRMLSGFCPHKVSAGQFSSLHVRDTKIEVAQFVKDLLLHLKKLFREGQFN
The assay is described as follows: Gyrolab in-solution affinity, 48 h incubation; 95% CI 3.8-11.5 pM. As to the method: as §1, §2

The target in assay [5] is T3, human OX40L. The assay is described as follows: Gyrolab in-solution affinity, 24 h incubation; 95% CI 108-141 pM. Here is the method:
as §1, §2

Assay [6] has as its target T5, cyno OX40L (cynomolgus monkey, UniProt G7NVH7 51-183).
T5 construct: also called cyOX40L; cynomolgus monkey OX40L
T5 sequence: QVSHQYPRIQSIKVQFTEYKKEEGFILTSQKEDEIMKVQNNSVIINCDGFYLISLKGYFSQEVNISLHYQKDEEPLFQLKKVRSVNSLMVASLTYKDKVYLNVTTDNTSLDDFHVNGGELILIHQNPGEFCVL
In words: Gyrolab in-solution affinity, 48 h incubation; 95% CI 225-326 pM. Here is the method: as §1, §2

Assay [7] deals with T6, cyno IL-13 (cynomolgus monkey, UniProt Q0PW92 21-132).
T6 construct: also called cynomolgus monkey IL-13
T6 sequence (Q0PW92 entry or part of it): as the sequence (P35225 35-146 limits assumed) above, with G1S, R10K, M42V, S67N, H83R, L100V counted along it
In words: Gyrolab in-solution affinity, 48 h incubation; 95% CI 9.5-13.9 pM. As to the method:
as §1, §2

T2 sequence (A2V9Z4 25-608): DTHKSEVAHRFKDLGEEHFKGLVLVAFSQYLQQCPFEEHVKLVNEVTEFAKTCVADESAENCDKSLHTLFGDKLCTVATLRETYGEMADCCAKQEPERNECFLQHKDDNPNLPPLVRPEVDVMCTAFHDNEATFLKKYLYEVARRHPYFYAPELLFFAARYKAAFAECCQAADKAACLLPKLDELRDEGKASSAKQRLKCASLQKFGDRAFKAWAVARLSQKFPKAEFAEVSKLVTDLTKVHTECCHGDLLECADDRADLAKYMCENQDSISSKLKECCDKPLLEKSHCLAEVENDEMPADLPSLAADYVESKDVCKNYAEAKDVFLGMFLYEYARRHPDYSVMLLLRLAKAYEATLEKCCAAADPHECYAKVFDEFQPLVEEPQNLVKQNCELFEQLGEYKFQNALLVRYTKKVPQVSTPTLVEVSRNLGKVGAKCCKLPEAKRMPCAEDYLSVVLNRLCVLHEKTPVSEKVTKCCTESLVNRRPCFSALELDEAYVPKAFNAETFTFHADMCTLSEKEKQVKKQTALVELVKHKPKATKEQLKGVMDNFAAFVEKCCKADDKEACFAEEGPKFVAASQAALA

B1: ISVD construct F027100187 (other)
chain: DVQLVESGGGVVQPGGSLRLSCAASRSIGRYDRMGWYRHRPGEPRELVATITGGSSINYGDSVKGRFTISIDNSKNTVYLQMNSLRPEDTALYYCNFNKYQISRDTWGQGTLVTVSSGGGGSGGGSEVQLVESGGGVVQPGGSLRLSCAASGRTFSSYRMGWFRQAPGKEREFVAALSGDGYSTYTANSVKGRFTISRDNSKNTVYLQMNSLRPEDTALYYCAAKLQYVSGWSYDYPYWGQGTLVTVSSGGGGSGGGSEVQLVESGGGVVQPGGSLRLSCAASGFTFRSFGMSWVRQAPGKGPEWVSSISGSGSDTLYADSVKGRFTISRDNSKNTLYLQMNSLRPEDTALYYCTIGGSLSRSSQGTLVTVSSGGGGSGGGSEVQLVESGGGVVQPGGSLRLSCAASGFTFNNYAMKWVRQAPGKGLEWVSSITTGGGSTDYADSVKGRFTISRDNSKNTLYLQMNSLRPEDTALYYCANVPFGYYSEHFSGLSFDYRGQGTLVTVSSA
notes: Tetravalent, trispecific single-chain construct of four VHH (ISVD) domains: one against OX40L, two against IL-13, one against serum albumin; also called F0271000187; F27100187
The Kd is the equilibrium constant for the complex coming apart. A low value points to higher affinity. As to B1, the dissociation constant Kd in assay [1] was 109 nM; in assay [2] it was 10.6 nM; in assay [4], 0.0076 nM; in assay [5] it was 0.125 nM; in assay [6] it was 0.275 nM; in assay [7], 0.0117 nM. Further, the “IL-5 IC50 (nM), triculture assay” value in assay [3] worked out at 1 nM.

For the origin of these results see patent US20220153854A1 (Ablynx, published 2022).
